What was measured:
[1] = test system: T1, Myc-tagged GID-2 construct of Xaxin (amino acid residues 320-429)
T1 sequence: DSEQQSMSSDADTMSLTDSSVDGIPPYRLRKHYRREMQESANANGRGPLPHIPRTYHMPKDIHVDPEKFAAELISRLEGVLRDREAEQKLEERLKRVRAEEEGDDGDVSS

[2] = test system: T2, Myc-tagged GID-3 construct of Xaxin (amino acid residues 320-375)
T2 sequence: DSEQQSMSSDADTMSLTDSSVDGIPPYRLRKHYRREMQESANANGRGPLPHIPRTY

[3] = test system: T3, Myc-tagged GID-4 construct of Xaxin (amino acid residues 350-429)
T3 sequence: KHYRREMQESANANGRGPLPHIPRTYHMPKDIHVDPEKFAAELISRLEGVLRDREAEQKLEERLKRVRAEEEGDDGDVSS

[4] = test system: T4, Myc-tagged GID-5 construct of Xaxin (amino acid residues 380-429)
T4 sequence: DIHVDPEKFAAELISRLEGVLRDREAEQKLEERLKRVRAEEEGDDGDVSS

[5] = test system: T5, Myc-tagged GID-6 construct of Xaxin (amino acid residues 380-404)
T5 sequence: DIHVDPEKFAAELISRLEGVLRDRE

[6] = test system: T6, GID-2/his fusion protein (Xaxin amino acid residues 320-429 with His-epitope tag, from E. coli)
T6 sequence: T1 sequence

Substance | GSK-3 beta mediated tau phosphorylation in Xenopus oocytes [1] | GSK-3 beta mediated tau phosphorylation in Xenopus oocytes [2] | GSK-3 beta mediated tau phosphorylation in Xenopus oocytes [3] | GSK-3 beta mediated tau phosphorylation in Xenopus oocytes [4] | GSK-3 beta mediated tau phosphorylation in Xenopus oocytes [5] | GSK-3 beta mediated phosphorylation of the GS-2 peptide derived from glycogen synthase, in vitro [6] | phosphorylation of tau by GSK-3 beta, in vitro [6]
GSK-3 beta (glycogen synthase kinase-3 beta) expressed in Xenopus oocytes | bound GSK-3 beta and inhibited GSK-3 beta mediated tau phosphorylation | did not bind GSK-3 beta and had no effect on GSK-3 beta activity | bound GSK-3 beta and inhibited GSK-3 beta mediated tau phosphorylation | bound GSK-3 beta and inhibited GSK-3 beta mediated tau phosphorylation | bound GSK-3 beta and inhibited GSK-3 beta mediated tau phosphorylation |  | 
Recombinantly-produced GSK-3 beta protein (New England Biolabs) |  |  |  |  |  | GID-2/his exhibited no significant effect on GSK-3 beta mediated phosphorylation of the GS-2 peptide | GID-2/his also did not inhibit phosphorylation of tau by GSK-3 beta, even when GID-2/his was present at a 200-fold molar excess

Source: US20010052137
